Results from article PMC3656419 (Journal of molecular biology, 2008).

B1: native EcMenD (Escherichia coli 2-succinyl-5-enolpyruvyl-6-hydroxy-3-cyclohexadiene-1-carboxylate synthase), N-terminal hexahistidine-tagged (enzyme, E. coli (K12), UniProt P17109 1-556, looked up)
chain: MSVSAFNRRWAAVILEALTRHGVRHICIAPGSRSTPLTLAAAENSAFIHHTHFDERGLGHLALGLAKVSKQPVAVIVTSGTAVANLYPALIEAGLTGEKLILLTADRPPELIDCGANQAIRQPGMFASHPTHSISLPRPTQDIPARWLVSTIDHALGTLHAGGVHINCPFAEPLYGEMDDTGLSWQQRLGDWWQDDKPWLREAPRLESEKQRDWFFWRQKRGVVVAGRMSAEEGKKVALWAQTLGWPLIGDVLSQTGQPLPCADLWLGNAKATSELQQAQIVVQLGSSLTGKRLLQWQASCEPEEYWIVDDIEGRLDPAHHRGRRLIANIADWLELHPAEKRQPWCVEIPRLAEQAMQAVIARRDAFGEAQLAHRICDYLPEQGQLFVGNSLVVRLIDALSQLPAGYPVYSNRGASGIDGLLSTAAGVQRASGKPTLAIVGDLSALYDLNALALLRQVSAPLVLIVVNNNGGQIFSLLPTPQSERERFYLMPQNVHFEHAAAMFELKYHRPQNWQELETAFADAWRTPTTTVIEMVVNDTDGAQTLQQLLAQVSHL
B2: SeMet EcMenD (selenomethionine derivative of Escherichia coli MenD, histidine tag removed by proteolysis) (enzyme, E. coli (K12))
chain: GHMSVSAFNRRWAAVILEALTRHGVRHICIAPGSRSTPLTLAAAENSAFIHHTHFDERGLGHLALGLAKVSKQPVAVIVTSGTAVANLYPALIEAGLTGEKLILLTADRPPELIDCGANQAIRQPGMFASHPTHSISLPRPTQDIPARWLVSTIDHALGTLHAGGVHINCPFAEPLYGEMDDTGLSWQQRLGDWWQDDKPWLREAPRLESEKQRDWFFWRQKRGVVVAGRMSAEEGKKVALWAQTLGWPLIGDVLSQTGQPLPCADLWLGNAKATSELQQAQIVVQLGSSLTGKRLLQWQASCEPEEYWIVDDIEGRLDPAHHRGRRLIANIADWLELHPAEKRQPWCVEIPRLAEQAMQAVIARRDAFGEAQLAHRICDYLPEQGQLFVGNSLVVRLIDALSQLPAGYPVYSNRGASGIDGLLSTAAGVQRASGKPTLAIVGDLSALYDLNALALLRQVSAPLVLIVVNNNGGQIFSLLPTPQSERERFYLMPQNVHFEHAAAMFELKYHRPQNWQELETAFADAWRTPTTTVIEMVVNDTDGAQTLQQLLAQVSHL
modifications: selenomethionine in place of methionine (full incorporation of SeMet)

How the values were obtained:
[1] = target: the molecule itself; test: SEC
[2] = target: the molecule itself; test: AUC
[3] = target: the molecule itself; test: crystal structure

Protein	stoichiometry N [1]	stoichiometry N [2]	stoichiometry N [3]
B1	2	–	–
B2	2	3	4
